Entries after “also recorded” stand apart in the source; their conditions may differ. Each block holds one substance with its values, some of them ahead of it. No end group written: not given here.
Key:
human PTH-1 receptors [1] = target: T1, human PTH-1 receptors (Homo sapiens, UniProt Q03431); assay: PLC activation (IP3 formation) in HKRK B7 cells; format: cell-based; conditions: for EC50: read-out: EC50 for PLC activation (IP3 formation); for IP3 Formation (% Maximum): % of maximal response to hPTH-(1-34); for PLC activation (IP3 formation), result in words: up to 1000 nM or 10 μM; for PLC activation, percent of basal: 1000 nM peptide
T1 construct: expressed in transfected cells
T1 sequence (Q03431 27-593): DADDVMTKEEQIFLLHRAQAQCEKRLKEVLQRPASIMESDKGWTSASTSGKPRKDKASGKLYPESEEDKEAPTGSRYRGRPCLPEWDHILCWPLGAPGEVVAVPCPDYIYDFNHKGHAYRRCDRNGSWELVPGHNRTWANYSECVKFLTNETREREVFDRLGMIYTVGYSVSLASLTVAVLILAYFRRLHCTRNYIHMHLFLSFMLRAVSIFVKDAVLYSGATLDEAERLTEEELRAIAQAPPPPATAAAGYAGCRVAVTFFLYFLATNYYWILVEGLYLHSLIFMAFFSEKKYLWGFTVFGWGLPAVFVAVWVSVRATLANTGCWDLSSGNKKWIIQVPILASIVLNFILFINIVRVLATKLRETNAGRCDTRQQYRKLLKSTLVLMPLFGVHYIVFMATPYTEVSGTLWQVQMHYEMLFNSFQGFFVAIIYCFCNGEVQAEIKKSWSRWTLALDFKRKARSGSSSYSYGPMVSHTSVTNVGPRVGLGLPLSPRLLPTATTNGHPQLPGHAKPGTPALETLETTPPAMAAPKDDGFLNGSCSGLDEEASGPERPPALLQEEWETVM
Method: (§1) HKRK B7 or EW5 cells (32), subclones of LLC-PKI renal epithelial cells that stably express human or rat PTH-1 receptors (950,000 and 320,000 receptors/cell, respectively), were maintained under 5% CO2 in air in Dulbecco's modified essential medium containing 7% fetal bovine serum (FBS) and 1% penicillin/streptomycin (GIBCO-BRL, Grand Island, N.Y.). HEK-293 and COS-7 cells were cultured similarly, except that 10% FBS was used in the medium. Cells were seeded into 24-well plates two days before assay at a density of 2-2.5×10^5 cells/well (HKRK B7 or EW 5 cells) or 6×10^5 cells/well (in 6-well plates) (HEK-293 cells). In experiments involving HEK-293 cells, DNA transfections were performed 24 hr after plating and inositol radiolabel was added 24 hr thereafter (see below). COS-7 cell transfections were performed as previously described (Gardella, T. J., et al., Endocrinology 132(5):2024-2030 (1993))
PLC was activated by PTH agonists in the presence of 30 mM LiCl at 37° C. for 30 min after 16 hr of labeling with [^3H]myo-inositol (3 uCi/ml) in serum-free medium containing 0.1% bovine serum albumin. The reactions were stopped by rapid aspiration and addition of cold 5% TCA. Water-soluble radiolabeled inositol trisphosphate (IP3) was isolated after ether extraction by ion-exchange chromatography (Guo, J., et al., Endocrinology 136(9):3884-3891 (1995)). In experiments involving HEK 293 cells, cells previously transfected with human PTHR cDNA (in the pcDNA1 expression vector HKRK) using Lipofectamine (Gibco BRL) were labeled with [^3H]myo-inositol and assayed as described above, except that total water-soluble [^3H]inositol polyphosphates were collected as a single fraction from the ion-exchange columns.

human PTH-1 receptors [2] = target: T1, human PTH-1 receptors; assay: Intracellular cAMP accumulation (adenylyl cyclase, AC, activation) in HKRK B7 cells; format: cell-based; conditions: for Cyclic AMP accumulation (% Maximum): % of maximal response to hPTH-(1-34), HKRK B7; for AC activation (cAMP accumulation), result in words: HKRK B7 cells, compared with hPTH-(1-34) or parent peptide
Method: as §1, with “(1993)) Intracellular cAMP accumulation, PLC activation and PTHR binding affinity were measured as previously reported (Bringhurst, F. R., et al., Endocrinology 132(5):2090-2098 (1993); Guo, J., et al., Endocrinology 136(9):3884-3891 (1995)). Intracellular cAMP accumulation was measured in extracts of cells that were exposed to human PTH peptides in the presence of isobutylmethyxanthine (IBMX, 1 mM) at 37° C. for 15 min. After terminating the reactions by aspiration and freezing in liquid nitrogen, cell monolayers were extracted with 50 mM HCl and cAMP was measured using a radioimmunoassay kit (Dupont-New England Nuclear, Boston, Mass.).” for “(1993))”

human PTH-1 receptors [3] = target: T1, human PTH-1 receptors; assay: Radioligand competition binding with 125I-[Nle8,21,Tyr34]rat PTH-(1-34) in HKRK B7 cells
Method: as §1, with “(1993)) Radioligand competition binding assays were performed at 2-8° C. for 6 hr using ^125I-[Nle^8,21,[…]]rat PTH-(1-34) (100,000 cpm/well) in the presence or absence of non-radioactive hPTH-(1-34) analogs. Cell layers were washed three times before solubilization for determination of cell-associated radioactivity.” for “(1993))”

membrane-bound PKCs = conditions: osteoblast-like ROS 17/2 cells; Neugebauer et al. 1995; cited from earlier work
human PTH-1 receptors [4] = target: T1, human PTH-1 receptors; conditions: HKRK B7 cells; Takasu and Bringhurst 1998; cited from earlier work
human PTH-1 receptors [5] = target: T1, human PTH-1 receptors; conditions: HKRK B7 cells; Takasu and Bringhurst 1998; cited from earlier work; remark: listed apart in the source

Substance: AVSEIQLMHNLGKHLNSMERVEWLRKKL-NH2 [[Ala^1]hPTH-(1-28)]
EC50 (human PTH-1 receptors [1]; HKRK B7 cells): 1000 nM

Substance: AVSEIQLMHNLGKHLNSMRRVEWLRKK [[Ala^1,Arg^19]hPTH-(1-27)]
Cyclic AMP accumulation (% Maximum) (human PTH-1 receptors [2]; 0.01 nM): −0.2 ± 0.1 % Maximum | Cyclic AMP accumulation (% Maximum) (human PTH-1 receptors [2]; 0.1 nM): 0.6 ± 0.3 % Maximum | Cyclic AMP accumulation (% Maximum) (human PTH-1 receptors [2]; 1 nM): 7 ± 0.6 % Maximum | Cyclic AMP accumulation (% Maximum) (human PTH-1 receptors [2]; 10 nM): 50 ± 5.1 % Maximum | Cyclic AMP accumulation (% Maximum) (human PTH-1 receptors [2]; 100 nM): 92 ± 15 % Maximum | Cyclic AMP accumulation (% Maximum) (human PTH-1 receptors [2]; 1000 nM): 99 ± 8.8 % Maximum | IP3 Formation (% Maximum) (human PTH-1 receptors [1]; 1000 nM, HKRK B7): 1.5 ± 4.8 % Maximum | IP3 Formation (% Maximum) (human PTH-1 receptors [1]; 10000 nM, HKRK B7): 6.9 ± 10 % Maximum

Substance: AVSEIQLMHNLGKHLNSMRRVEWLRKKL-NH2 [[Ala^1,Arg^19]hPTH-(1-28)]
AC activation (cAMP accumulation), result in words (human PTH-1 receptors [2]): indistinguishable from that of hPTH-(1-34) | EC50 (human PTH-1 receptors [1]; HKRK B7 cells): 200 nM | fold improvement of EC50 for PLC activation by the Arg^19 modification (human PTH-1 receptors [1]; over [Ala^1]hPTH-(1-28), HKRK B7): 5 fold

Substance: SerValSerGluIleGlnLeuMetHisAsnLeuGlyLysHis LeuAsnSerMetGluArgValGluTrpLeuArgLysLys (SVSEIQLMHNLGKHLNSMERVEWLRKK-NH2; listed as Homo sapiens) [hPTH-(1-27)]
stimulation of activity of membrane-bound PKCs (membrane-bound PKCs): incapable of stimulating

Substance: [Ala^1]hPTH-(1-34): hPTH-(1-34) with Ala^1 for Ser^1 [reference compound]
AC activation (cAMP accumulation), result in words (human PTH-1 receptors [2]): indistinguishable from hPTH-(1-34) | PLC activation (IP3 formation), result in words (human PTH-1 receptors [1]; HKRK B7 cells): indistinguishable from hPTH-(1-34) | binding affinity, result in words (human PTH-1 receptors [3]): indistinguishable from hPTH-(1-34)

Substance: [Gly^1]hPTH-(1-34): hPTH-(1-34) with Gly^1 for Ser^1 [reference compound]
AC activation (cAMP accumulation), result in words (human PTH-1 receptors [2]): unchanged | PLC activity as % of the hPTH-(1-34) maximum (human PTH-1 receptors [1]; 1000 nM, highest concentration tested, HKRK B7 cells): 25% | binding affinity, result in words (human PTH-1 receptors [3]): unchanged

Substance: [Tyr^0]hPTH-(1-34): hPTH-(1-34) with a tyrosine residue interposed at the N-terminus; purchased from Sigma (YSVSEIQLMHNLGKHLNSMERVEWLRKKLQDVHNF) [reference compound]
PLC activation, percent of basal (human PTH-1 receptors [1]; HKRK B7 cells): 105±5% of basal

Substance: hPTH-(1-26): C-truncated human PTH peptide (SVSEIQLMHNLGKHLNSMERVEWLRK)
stimulation of activity of membrane-bound PKCs (membrane-bound PKCs): incapable of stimulating

Substance: hPTH-(1-30): C-truncated human PTH peptide (SVSEIQLMHNLGKHLNSMERVEWLRKKLQD-NH2; UniProt P01270 32-61, looked up, fragment)
PLC activation, previously reported (human PTH-1 receptors [4]): fully activated | AC activation, previously reported (human PTH-1 receptors [5]): fully activated | stimulation of activity of membrane-bound PKCs (membrane-bound PKCs): incapable of stimulating

Substance: hPTH-(1-31): C-truncated human PTH peptide
PLC activation, previously reported (human PTH-1 receptors [4]): fully activated | AC activation, previously reported (human PTH-1 receptors [5]): fully activated

The next lines start with results.

binding affinity, result in words (human PTH-1 receptors [3]): modestly impaired
Substance: GlyValSerGluIleGInLeuMetHisAsnLeuGlyLysHisLeuAsnSerMetGluArgVal GluTrpLeuArgLysLysLeu (GVSEIQLMHNLGKHLNSMERVEWLRKKL; listed as Homo sapiens) [[Gly^1]hPTH-(1-28)]
PLC activation (IP3 formation), result in words (human PTH-1 receptors [1]; HKRK B7 cells): selectively eliminated PLC signaling, apart from a weak response at 10 μM

AC activation (cAMP accumulation), result in words (human PTH-1 receptors [2]): unaffected | EC50 (human PTH-1 receptors [1]; HKRK B7 cells): 300 nM | PLC activation (IP3 formation), result in words (human PTH-1 receptors [1]; HKRK B7 cells): maximally activated | IC50 (human PTH-1 receptors [3]; read-out: apparent IC50 for binding): 100 nM
Substance: SVSEIQLMHNLGKHLNSMRRVEWLRKKL-NH2 [[Arg^19]hPTH-(1-28)]

PLC activation, percent of basal (human PTH-1 receptors [1]; HKRK B7 cells): 101±6% of basal
Substance: desamino-hPTHrP(1-36): hPTHrP(1-36) with the α-amino group removed [reference compound]

AC activation (cAMP accumulation), result in words (human PTH-1 receptors [2]): only minimally active
Substance: hPTH-(1-24): C-truncated human PTH peptide (SVSEIQLMHNLGKHLNSMERVEWL)

AC activation (cAMP accumulation), result in words (human PTH-1 receptors [2]): nearly identical
Substance: hPTH-(1-25): C-truncated human PTH peptide (SVSEIQLMHNLGKHLNSMERVEWLR)

PLC activation (IP3 formation), result in words (human PTH-1 receptors [1]; HKRK B7 cells): did not elicit PLC activity
Substance: hPTH-(2-34): hPTH-(1-34) lacking residue 1 (VSEIQLMHNLGKHLNSMERVEWLRKKLQDVHNY) [reference compound]
AC activation (cAMP accumulation), result in words (human PTH-1 receptors [2]): comparable in magnitude and sensitivity to that of hPTH-(1-34); also recorded: equipotent with hPTH-(1-34)

PLC activation, percent of basal (human PTH-1 receptors [1]; HKRK B7 cells): 178±12% of basal
Substance: hPTHrP(1-36): human PTH-related peptide fragment 1-36 [reference compound]

— US7479478B2, “Human parathyroid hormone modifications, preparation and use” (The General Hospital Corporation, priority 1998, dated 2009)
